Data reported in patent US20240010720A1 (IOMX THERAPEUTICS, published 2024).
Where two headings read alike, the source gives them in different places. Values belong to the binder of their own block, whether it stands above or below them.

Tests used:
[1] = target: T1, IGSF11 ECD fused to murine-Fc (human; mouse, UniProt Q5DX21 23-241); assay: ELISA, IgG
T1 construct: also called Fc-fusion IGSF11 ECD; full-length ECD of IGSF11; not shown: murine Fc
T1 sequence: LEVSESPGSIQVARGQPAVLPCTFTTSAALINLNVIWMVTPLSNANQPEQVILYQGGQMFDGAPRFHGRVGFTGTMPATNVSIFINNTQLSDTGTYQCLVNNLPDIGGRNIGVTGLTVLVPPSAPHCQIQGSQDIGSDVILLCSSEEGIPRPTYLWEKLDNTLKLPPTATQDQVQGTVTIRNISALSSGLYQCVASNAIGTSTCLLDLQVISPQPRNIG

[2] = target: T2, IgC2 domain of human IGSF11 fused to murine IgG2a Fc-region (human; mouse, UniProt Q5DX21 137-241); assay: ELISA, IgG
T2 construct: also called IgC2-like domain mFc fusion; not shown: murine IgG2a Fc-region
T2 sequence: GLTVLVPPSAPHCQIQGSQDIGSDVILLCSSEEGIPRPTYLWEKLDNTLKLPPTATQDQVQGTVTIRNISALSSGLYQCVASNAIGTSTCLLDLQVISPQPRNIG

[3] = target: T3, recombinant human IGSF11 (VSIG3) extracellular domain (ECD) (human, UniProt Q5DX21 23-241, biotinylated where captured on streptavidin); assay: BLI, IgG1
T3 construct: also called biotinylated recombinant ECD-IGSF11; IGSF11 (ECD domain)
T3 sequence: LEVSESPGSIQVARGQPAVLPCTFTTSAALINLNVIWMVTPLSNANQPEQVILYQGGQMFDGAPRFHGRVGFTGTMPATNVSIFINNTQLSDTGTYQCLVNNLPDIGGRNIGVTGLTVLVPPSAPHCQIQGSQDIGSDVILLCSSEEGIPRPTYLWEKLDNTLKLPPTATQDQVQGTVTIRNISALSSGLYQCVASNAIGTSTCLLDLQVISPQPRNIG

[4] = target: T4, human IGSF11 (VSIG3) on cells (human, UniProt Q5DX21 23-431); assay: FACS, DMS 273 cells
T4 sequence: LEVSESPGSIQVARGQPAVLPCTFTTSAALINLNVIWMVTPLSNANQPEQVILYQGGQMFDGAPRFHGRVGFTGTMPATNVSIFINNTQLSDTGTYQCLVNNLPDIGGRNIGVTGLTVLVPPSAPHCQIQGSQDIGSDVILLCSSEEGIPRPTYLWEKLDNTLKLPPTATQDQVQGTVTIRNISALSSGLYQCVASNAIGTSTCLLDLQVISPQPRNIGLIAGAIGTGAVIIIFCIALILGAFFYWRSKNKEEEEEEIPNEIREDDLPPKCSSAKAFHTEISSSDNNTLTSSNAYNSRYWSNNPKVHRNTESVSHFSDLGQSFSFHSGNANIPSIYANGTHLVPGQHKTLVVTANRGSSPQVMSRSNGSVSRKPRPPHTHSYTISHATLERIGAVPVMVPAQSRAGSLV

[5] = target: T5, His-tagged extracellular domain (ECD) of human IGSF11 (VSIG3) (human, UniProt Q5DX21 23-241); assay: ELISA: IgG1-format antibody titrated on coated His-tagged IGSF11; x axis nM IgG, y axis absorbance per legend
T5 construct: partly bought (SinoBiological 13094-H08H); also called IGSF11-HIS; HIS-IGSF11; not shown: HIS6 tag
T5 sequence: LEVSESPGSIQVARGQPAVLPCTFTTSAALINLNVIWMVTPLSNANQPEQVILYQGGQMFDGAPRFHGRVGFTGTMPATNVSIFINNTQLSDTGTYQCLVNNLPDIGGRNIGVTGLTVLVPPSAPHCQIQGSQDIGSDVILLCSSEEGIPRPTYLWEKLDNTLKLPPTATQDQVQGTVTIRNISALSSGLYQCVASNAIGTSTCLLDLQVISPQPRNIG

[6] = target: T4, human IGSF11 (VSIG3) on cells; assay: FACS, IgG1-format antibodies; M579-A2-luc cells (M) treated with IGSF11 siRNA (KD)
[7] = target: T3, recombinant human IGSF11 (VSIG3) …; assay: SPR, IgG1
[8] = target: T4, human IGSF11 (VSIG3) on cells; assay: FACS, HEK cells expressing IGSF11
[9] = target: T4, human IGSF11 (VSIG3) on cells; assay: FACS, IgG1-format antibodies; M579-A2-luc cells (M) treated with scrambled control siRNA (SC)
[10] = target: T5, His-tagged extracellular domain (ECD) …; assay: blocking ELISA: antibody pre-incubated with His-tagged IGSF11 ECD, complexes added to immobilised VSIR-Fc; y axis % remaining IGSF11 binding to VSIR, x axis nM IgG per legend
[11] = target: T4, human IGSF11 (VSIG3) on cells; assay: FACS, IgG1-format antibodies; CL-11 cells (C), a line that does not express IGSF11 (specificity control), scrambled control siRNA (SC)
[12] = target: T4, human IGSF11 (VSIG3) on cells; assay: FACS, IgG1-format antibodies; CL-11 cells (C), a line that does not express IGSF11 (specificity control), IGSF11 siRNA (KD)
[13] = target: T5, His-tagged extracellular domain (ECD) …; assay: ELISA EC50 grade, IgG1
[14] = target: T4, human IGSF11 (VSIG3) on cells; assay: FACS, IgG1-format antibodies; DMS 273 cells (D) treated with scrambled control siRNA (SC)
[15] = target: T4, human IGSF11 (VSIG3) on cells; assay: FACS, IgG1-format antibodies; DMS 273 cells (D) treated with IGSF11 siRNA (KD)
[16] = target: T5, His-tagged extracellular domain (ECD) …; assay: ELISA: IgG1-format antibody titrated on coated His-tagged IGSF11; x axis nM IgG, y axis absorbance per legend; remark: listed apart in the source
[17] = target: T5, His-tagged extracellular domain (ECD) …; assay: blocking ELISA: antibody pre-incubated with His-tagged IGSF11 ECD, complexes added to immobilised VSIR-Fc; y axis % remaining IGSF11 binding to VSIR, x axis nM IgG per legend; remark: listed apart in the source
[18] = target: T1, IGSF11 ECD fused to murine-Fc; assay: ELISA, IgG; remark: listed apart in the source

B2: A-012 (IgG1 format) (antibody, V domains shown)
VH: EVQLLESGGGLIQPGGSLRLSCAVSGFTVSSNYMSWVRQAPGKGLEWVSVIYSGGSTYYADSVKGRFTISRDNSKNTLYLQMNSLRAEDTAVYYCARGNPYYYGDLQVNFDYWGQGTLVTVSS
VL: QAVVTQEPSLTVSPGGTVTLTCASSTGAVTSGYYPNWFQQKPGQAPRALIYSTSNKHSWTPARFSGSLLGGKAALTLSGVQPEDEAEYYCLLYYGGAWVFGGGTKLTVL
notes: human IgG1 format
- Kd [3]: 1 to 10 nM
- EC50 [4]: 10 to 50 nM
- EC50 (read off the curve) [5]: ~0.007 nM
- percentage binding (FACS heat-map) [6]: 2.35%
- Kd [7]: 250 to 500 nM
- EC50 [8]: 10 to 50 nM
- percentage binding (FACS heat-map) [9]: 65.4%
- IC50 (read off the curve) [10]: ~2 nM
- percentage binding (FACS heat-map) [11]: 5.11%
- percentage binding (FACS heat-map) [12]: 3.93%
- EC50 [13]: 0.02 to 0.05 nM
- percentage binding (FACS heat-map) [14]: 75.8%
- percentage binding (FACS heat-map) [15]: 4.77%

B3: B-003 (chain-swapped IgG1) (antibody, V domains shown)
VH: EVQLLESGGGLIQPGGSLRLSCAVSGFTVSSNYMSWVRQAPGKGLEWVSVIYSGGSTYYADSVKGRFTISRDNSKNTLYLQMNSLRAEDTAVYYCARGNPYYYGDLQVNFDYWGQGTLVTVSS
VL: QAVVTQEPSLTVSPGETVTLTCASSTGAVTSGYYPNWFQQRPGQAPRALIYSTSNKDSWTPARFSGSLLGGKAALTLSGVQPEDEAEYYCLLYYGGAWVFGGGTKLTVL
notes: human IgG1 format; also called B3
- EC50 (read off the curve) [5]: ~0.008 nM
- IC50 (read off the curve) [10]: ~2 nM

B5: B-005 (chain-swapped IgG1) (antibody, V domains shown)
VH: EVQLLESGGGLIQPGGSLRLSCAVSGFTVSSNYMSWVRQAPGKGLEWVSVIYSGGSTYYADSVKGRFTISRDNSKNTLYLQMNSLRAEDTAVYYCARGNPYYYGDLQVNFDYWGQGTLVTVSS
VL: QAVVTQEPSLTVSPGGTVTPTCGSSTGAVTSGNLPNWFQQKPGQAPRALIYSTSNKHSWTPARISGSLLGGKAALTLSGVQPEDEAEYYCLLYYGGAWVFGGGTKLTVL
notes: human IgG1 format; also called B5
- EC50 (read off the curve) [5]: ~0.01 nM
- IC50 (read off the curve) [10]: ~2 nM

B8: A-011 (IgG1 format) (antibody, V domains shown)
VH: QVQLVESGGGVVQPGRSLRLSCAASGFTFSSYAMHWVRQAPGKGLEWVAVISYDGSNKYYADSVKGRFTISRDNSKNTLYLQMNSLRAEDTAVYYCAEGGALNYYGMDVWGQGTTVTVSS
VL: SSELTQDPGVSVALGQTVRITCQGDSLRHFYATWYQQKPGQAPILVIYGKNNRPSGIPDRFSGSSSEDTASLTITGAQAEDEADYYCQSRDPRNNHLIFGGGTKLIVL
notes: human IgG1 format
- Kd [3]: 10 to 20 nM
- EC50 [18]: < 1 nM
- percentage binding (FACS heat-map) [6]: 2.41%
- Kd [7]: 250 to 500 nM
- EC50 [8]: > 50 nM
- percentage binding (FACS heat-map) [9]: 2.05%
- percentage binding (FACS heat-map) [11]: 2.87%
- percentage binding (FACS heat-map) [12]: 4.86%
- EC50 [13]: < 0.02 nM
- percentage binding (FACS heat-map) [14]: 6.95%
- percentage binding (FACS heat-map) [15]: 3.4%

The next lines start with the values.

- EC50 [1]: < 1 nM
- EC50 [2]: < 1 nM
B1: C-011 (IgG1 format) (antibody, V domains shown)
VH: QVQLVQSGAEVKKPGSSVKVSCKASGGTFSSYAISWVRQAPGQGLEWMGGIIPIFGTANYAQKFQGRVTITADESTSTAYMELSSLRSEDTAVYYCARHSTPSFLQYWGQGTLVTVSS
VL: SYELTQPPSVSVSPGQTASITCSGDKLGDKYASWYQQKPGQSPVLVIYQDSKRPSGIPERFSGSNSGNTATLTISGTQAEDEADYYCAVYPAHASARWVFGGGTKLTVL
notes: wildtype human IgG1 and kappa or lambda constant regions

- EC50 (read off the curve) [16]: ~0.02 nM
- IC50 (read off the curve) [17]: ~5 nM
B4: B-006 (chain-swapped IgG1) (antibody, V domains shown)
VH: EVQLVESGGGLIQPGGSLRLSCAASGFTVSSNYMSWVRQAPGKGLEWVSVIYSGGSTYYADSVKGRFTISRDNSKNTLYLQMNSLRAEDTAVYYCARGNPYYYGDLQVNFDYWGQGTLVTVSS
VL: QAVVTQEPSLTVSPGETVTLTCASSTGAVTSGYYPNWFQQRPGQAPRALIYSTSNKDSWTPARFSGSLLGGKAALTLSGVQPEDEAEYYCLLYYGGAWVFGGGTKLTVL
notes: human IgG1 format; also called B6

- EC50 (read off the curve) [16]: ~0.01 nM
- IC50 (read off the curve) [17]: ~3 nM
B6: B-007 (chain-swapped IgG1) (antibody, V domains shown)
VH: EVQLVESGGGLIQPGGSLRLSCAASGFTVSSNYMSWVRQAPGKGLEWVSVIYSGGSTYYADSVKGRFTISRDNSKNTLYLQMNSLRAEDTAVYYCARGNPYYYGDLQVNFDYWGQGTLVTVSS
VL: QAVVTQEPSLTVSPGGTVTLTCASSTGAVTSAYYPNWFQQKPGQAPRALIYSTSNKHSWTPARFSGSLLGGKAALTLSGVQPEDEADYYCLLYYGGAWVFGGGTKLTVL
notes: human IgG1 format; also called B7

- EC50 [1]: 1 to 20 nM
- EC50 [2]: < 1 nM
B7: C-014 (IgG1 format) (antibody, V domains shown)
VH: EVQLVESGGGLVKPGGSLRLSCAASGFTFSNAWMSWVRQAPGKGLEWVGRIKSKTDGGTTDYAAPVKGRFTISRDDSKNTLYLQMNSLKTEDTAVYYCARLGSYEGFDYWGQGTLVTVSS
VL: SYELTQPPSVSVSPGQTASITCSGDKLGDKYASWYQQKPGQSPVLVIYQDSKRPSGIPERFSGSNSGNTATLTISGTQAEDEADYYCSTYTVTSSVVVFGGGTKLTVL
notes: as for B1
